Consider eight molecules from patent US20240182541A1 (CONCEPT TO MEDICINE BIOTECH, published 2024).

Assay [1] deals with T1, B7-H3 on B7H3-expressing A375 and A375.S2 cells (UniProt Q5ZPR3 29-534, limits assumed).
T1 construct: whole, on cells
T1 sequence (looked up): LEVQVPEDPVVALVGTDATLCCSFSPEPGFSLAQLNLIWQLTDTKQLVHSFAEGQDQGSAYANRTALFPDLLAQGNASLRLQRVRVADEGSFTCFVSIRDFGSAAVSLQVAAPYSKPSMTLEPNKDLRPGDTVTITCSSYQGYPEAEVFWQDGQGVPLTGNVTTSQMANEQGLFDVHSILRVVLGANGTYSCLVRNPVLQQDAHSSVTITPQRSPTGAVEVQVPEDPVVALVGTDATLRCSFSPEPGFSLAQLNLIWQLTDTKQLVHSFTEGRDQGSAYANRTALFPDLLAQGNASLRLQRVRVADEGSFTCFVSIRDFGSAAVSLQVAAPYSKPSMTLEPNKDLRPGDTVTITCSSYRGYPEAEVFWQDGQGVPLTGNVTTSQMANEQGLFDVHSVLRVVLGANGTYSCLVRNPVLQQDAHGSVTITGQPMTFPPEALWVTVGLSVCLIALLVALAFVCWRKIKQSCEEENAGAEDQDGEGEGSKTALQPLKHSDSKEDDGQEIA
As to the kind of experiment: cell-based binding assay (FIG. 15A).

For assay [2], the target named is T1, B7-H3 on B7H3-expressing A375 and …. As to the kind of experiment: binding to B7H3-expressing A375 cell line (FIG. 18).
Experimental: The binding of these prodrugs against B7H3-expressing A375 cell line were tested.
The target is the same in assay [3]. As to the kind of experiment: cell-based binding on A375 and A375.S2 cells (FIG. 13).
Assay [4] has the same target. The assay can be described thus: FACS on B7H3-expressing A375 and A375.S2 cells.

B1: Format 31 (KIH CH3Δ6 mask + cleavable linker IPVSLRSGPLGLAG on MGA017 variable regions, mIgG1) (antibody)
heavy: GQPREPQVCTLPPSRDELTKNQVSLSCAVKGFYPSDIAVEWESNGQPENNYKTTPPVLDSDGSFFLVSKLTVDKSRWQQGNVFSCSVMHEALHNHYTQKSLIPVSLRSGPLGLAGEVQLVESGGGLVKPGGSLRLSCAASGFTFSSYGMSWVRQAPGKGLEWVATINSGGSNTYYPDSLKGRFTISRDNAKNSLYLQMNSLRAEDTAVYYCARHDGGAMDYWGQGTTVTVSSAKTTPPSVYPLAPGSAAQTNSMVTLGCLVKGYFPEPVTVTWNSGSLSSGVHTFPAVLQSDLYTLSSSVTVPSSTWPSETVTCNVAHPASSTKVDKKIVPRDCGCKPCICTVPEVSSVFIFPPKPKDVLTITLTPKVTCVVVDISKDDPEVQFSWFVDDVEVHTAQTQPREEQFNSTFRSVSELPIMHQDWLNGKEFKCRVNSAAFPAPIEKTISKTKGRPKAPQVYTIPPPKEQMAKDKVSLTCMITDFFPEDITVEWQWNGQPAENYKNTQPIMDTDGSYFVYSKLNVQKSNWEAGNTFTCSVLHEGLHNHHTEKSLSHSPGK
light: GQPREPQVYTLPPCRDELTKNQVSLWCLVKGFYPSDIAVEWESNGQPENNYKTTPPVLDSDGSFFLYSKLTVDKSRWQQGNVFSCSVMHEALHNHYTQKSLIPVSLRSGPLGLAGDIQMTQSPSSLSASVGDRVTITCRASESIYSYLAWYQQKPGKAPKLLVYNTKTLPEGVPSRFSGSGSGTDFTLTISSLQPEDFATYYCQHHYGTPPWTFGQGTRLEIKRADAAPTVSIFPPSSEQLTSGGASVVCFLNNFYPKDINVKWKIDGSERQNGVLNSWTDQDSKDSTYSMSSTLTLTKDEYERHNSYTCEATHKTSTSPIVKSFNRNEC
notes: Antibody prodrug against B7-H3, uncleaved
Take B1: in assay [1], the binding result is “binds”.

B2: Format 34 (CLκ on VH / CH1 plus EPKSC on VL as mask + GGGS on MGA017 variable regions, hIgG1) (antibody)
heavy: not shown
light: ASTKGPSVFPLAPSSKSTSGGTAALGCLVKDYFPEPVTVSWNSGALTSGVHTFPAVLQSSGLYSLSSVVTVPSSSLGTQTYICNVNHKPSNTKVDKKVEPKSCGGGSDIQMTQSPSSLSASVGDRVTITCRASESIYSYLAWYQQKPGKAPKLLVYNTKTLPEGVPSRFSGSGSGTDFTLTISSLQPEDFATYYCQHHYGTPPWTFGQGTRLEIKRTVAAPSVFIFPPSDEQLKSGTASVVCLLNNFYPREAKVQWKVDNALQSGNSQESVTEQDSKDSTYSLSSTLTLSKADYEKHKVYACEVTHQGLSSPVTKSFNRGEC
notes: Antibody prodrug against B7-H3
B2: in assay [2], the binding result is listed as “binds”.

B3: Format 30 (KIH CH3Δ6 mask + cleavable linker PLGLAGGGGS on MGA017 variable regions, mIgG1) (antibody)
heavy: GQPREPQVCTLPPSRDELTKNQVSLSCAVKGFYPSDIAVEWESNGQPENNYKTTPPVLDSDGSFFLVSKLTVDKSRWQQGNVFSCSVMHEALHNHYTQKSLPLGLAGGGGSEVQLVESGGGLVKPGGSLRLSCAASGFTFSSYGMSWVRQAPGKGLEWVATINSGGSNTYYPDSLKGRFTISRDNAKNSLYLQMNSLRAEDTAVYYCARHDGGAMDYWGQGTTVTVSSAKTTPPSVYPLAPGSAAQTNSMVTLGCLVKGYFPEPVTVTWNSGSLSSGVHTFPAVLQSDLYTLSSSVTVPSSTWPSETVTCNVAHPASSTKVDKKIVPRDCGCKPCICTVPEVSSVFIFPPKPKDVLTITLTPKVTCVVVDISKDDPEVQFSWFVDDVEVHTAQTQPREEQFNSTFRSVSELPIMHQDWLNGKEFKCRVNSAAFPAPIEKTISKTKGRPKAPQVYTIPPPKEQMAKDKVSLTCMITDFFPEDITVEWQWNGQPAENYKNTQPIMDTDGSYFVYSKLNVQKSNWEAGNTFTCSVLHEGLHNHHTEKSLSHSPGK
light: GQPREPQVYTLPPCRDELTKNQVSLWCLVKGFYPSDIAVEWESNGQPENNYKTTPPVLDSDGSFFLYSKLTVDKSRWQQGNVFSCSVMHEALHNHYTQKSLPLGLAGGGGSDIQMTQSPSSLSASVGDRVTITCRASESIYSYLAWYQQKPGKAPKLLVYNTKTLPEGVPSRFSGSGSGTDFTLTISSLQPEDFATYYCQHHYGTPPWTFGQGTRLEIKRADAAPTVSIFPPSSEQLTSGGASVVCFLNNFYPKDINVKWKIDGSERQNGVLNSWTDQDSKDSTYSMSSTLTLTKDEYERHNSYTCEATHKTSTSPIVKSFNRNEC
notes: as for B1
Consider B3, for which the binding result in assay [3] is reported as “binds”.

B4: Format 29 (KIH CH3Δ6 mask + cleavable linker PLGLAG on MGA017 variable regions, mIgG1) (antibody)
heavy: GQPREPQVCTLPPSRDELTKNQVSLSCAVKGFYPSDIAVEWESNGQPENNYKTTPPVLDSDGSFFLVSKLTVDKSRWQQGNVFSCSVMHEALHNHYTQKSLPLGLAGEVQLVESGGGLVKPGGSLRLSCAASGFTFSSYGMSWVRQAPGKGLEWVATINSGGSNTYYPDSLKGRFTISRDNAKNSLYLQMNSLRAEDTAVYYCARHDGGAMDYWGQGTTVTVSSAKTTPPSVYPLAPGSAAQTNSMVTLGCLVKGYFPEPVTVTWNSGSLSSGVHTFPAVLQSDLYTLSSSVTVPSSTWPSETVTCNVAHPASSTKVDKKIVPRDCGCKPCICTVPEVSSVFIFPPKPKDVLTITLTPKVTCVVVDISKDDPEVQFSWFVDDVEVHTAQTQPREEQFNSTFRSVSELPIMHQDWLNGKEFKCRVNSAAFPAPIEKTISKTKGRPKAPQVYTIPPPKEQMAKDKVSLTCMITDFFPEDITVEWQWNGQPAENYKNTQPIMDTDGSYFVYSKLNVQKSNWEAGNTFTCSVLHEGLHNHHTEKSLSHSPGK
light: GQPREPQVYTLPPCRDELTKNQVSLWCLVKGFYPSDIAVEWESNGQPENNYKTTPPVLDSDGSFFLYSKLTVDKSRWQQGNVFSCSVMHEALHNHYTQKSLPLGLAGDIQMTQSPSSLSASVGDRVTITCRASESIYSYLAWYQQKPGKAPKLLVYNTKTLPEGVPSRFSGSGSGTDFTLTISSLQPEDFATYYCQHHYGTPPWTFGQGTRLEIKRADAAPTVSIFPPSSEQLTSGGASVVCFLNNFYPKDINVKWKIDGSERQNGVLNSWTDQDSKDSTYSMSSTLTLTKDEYERHNSYTCEATHKTSTSPIVKSFNRNEC
notes: as for B1
Turning to B4, the binding result in assay [3] was “binds”.

B5: Format 28 (KIH CH3Δ6 mask + cleavable linker IPVSLRSG on MGA017 variable regions, mIgG1) (antibody)
heavy: GQPREPQVCTLPPSRDELTKNQVSLSCAVKGFYPSDIAVEWESNGQPENNYKTTPPVLDSDGSFFLVSKLTVDKSRWQQGNVFSCSVMHEALHNHYTQKSLIPVSLRSGEVQLVESGGGLVKPGGSLRLSCAASGFTFSSYGMSWVRQAPGKGLEWVATINSGGSNTYYPDSLKGRFTISRDNAKNSLYLQMNSLRAEDTAVYYCARHDGGAMDYWGQGTTVTVSSAKTTPPSVYPLAPGSAAQTNSMVTLGCLVKGYFPEPVTVTWNSGSLSSGVHTFPAVLQSDLYTLSSSVTVPSSTWPSETVTCNVAHPASSTKVDKKIVPRDCGCKPCICTVPEVSSVFIFPPKPKDVLTITLTPKVTCVVVDISKDDPEVQFSWFVDDVEVHTAQTQPREEQFNSTFRSVSELPIMHQDWLNGKEFKCRVNSAAFPAPIEKTISKTKGRPKAPQVYTIPPPKEQMAKDKVSLTCMITDFFPEDITVEWQWNGQPAENYKNTQPIMDTDGSYFVYSKLNVQKSNWEAGNTFTCSVLHEGLHNHHTEKSLSHSPGK
light: GQPREPQVYTLPPCRDELTKNQVSLWCLVKGFYPSDIAVEWESNGQPENNYKTTPPVLDSDGSFFLYSKLTVDKSRWQQGNVFSCSVMHEALHNHYTQKSLIPVSLRSGDIQMTQSPSSLSASVGDRVTITCRASESIYSYLAWYQQKPGKAPKLLVYNTKTLPEGVPSRFSGSGSGTDFTLTISSLQPEDFATYYCQHHYGTPPWTFGQGTRLEIKRADAAPTVSIFPPSSEQLTSGGASVVCFLNNFYPKDINVKWKIDGSERQNGVLNSWTDQDSKDSTYSMSSTLTLTKDEYERHNSYTCEATHKTSTSPIVKSFNRNEC
notes: as for B1
For B5, the binding result in assay [3] is recorded as “binds”.

B6: MGA017 (parental naked anti-B7-H3 antibody) (antibody, V domains shown)
VH: EVQLVESGGGLVKPGGSLRLSCAASGFTFSSYGMSWVRQAPGKGLEWVATINSGGSNTYYPDSLKGRFTISRDNAKNSLYLQMNSLRAEDTAVYYCARHDGGAMDYWGQGTTVTVSS
VL: DIQMTQSPSSLSASVGDRVTITCRASESIYSYLAWYQQKPGKAPKLLVYNTKTLPEGVPSRFSGSGSGTDFTLTISSLQPEDFATYYCQHHYGTPPWTFGQGTRLEIK
notes: Anti-B7-H3 antibody from MacroGenics; also called un-masked MGA017; parental naked antibody of Format 12
Turning to B6, in assay [4], the binding result is recorded as “binds”.

B7: MGA017-mIgG1 (parental antibody of Formats 28-31) (antibody, V domains shown)
VH: B6 VH
VL: B6 VL
notes: mIgG1; also called parental antibody MGA017; naked antibody MGA017
Turning to B7, the binding result in assay [3] is given as “binds”.

B8: Format 33 (IgG1 CH3Δ6 hole / IgG4 CH3Δ6 knob mask + GGGS on MGA017 variable regions, hIgG1) (antibody)
heavy: not shown
light: GQPREPQVYTLPPCQEEMTKNQVSLWCLVKGFYPSDIAVEWESNGQPENNYKTTPPVLDSDGSFFLYSRLTVDKSRWQEGNVFSCSVMHEALHNHYTQKSLGGGSDIQMTQSPSSLSASVGDRVTITCRASESIYSYLAWYQQKPGKAPKLLVYNTKTLPEGVPSRFSGSGSGTDFTLTISSLQPEDFATYYCQHHYGTPPWTFGQGTRLEIKRTVAAPSVFIFPPSDEQLKSGTASVVCLLNNFYPREAKVQWKVDNALQSGNSQESVTEQDSKDSTYSLSSTLTLSKADYEKHKVYACEVTHQGLSSPVTKSFNRGEC
notes: as for B2
In the case of B8, in assay [2], the binding result is reported as “binds”.
